A short description of the data set: label from the status in PepcDB records.

In the case of “MLKQPIQAQQLIELLKVHYGIDIHTAQFIQGGADTNAFAYQADSESKSYFIKLKYGYHDEINLSIIRLLHDSGIKEIIFPIHTLEAKLFQQLKHFKIIAYPFIHAPNGFTQNLTGKQWKQLGKVLRQIHETSVPISIQQQLRKEIYSPKWREIVRSFYNQIEFDNSDDKLTAAFKSFFNQNSAAIHRLVDTSEKLSKKIQPDLDKYVLCHSDIHAGNVLVGNEESIYIIDWDEPMLAPKERDLMFIGGGVGNVWNKPHEIQYFYEGYGEINVDKTILSYYRHERIVEDIAVYGQDLLSRNQNNQSRLESFKYFKEMFDPNNVVEIAFATEQ”, the protein production entry is “failed”.
In the case of “MLKRIFTVGGFTLLSRLTGFARDIMLAAILGAGPVADAFFVALRLPNHFRAIFAEGAFNAAFVPAYAHVHGEKGEASAKLFADRIFTLLFLSQLVLLAVALAFMPQMMSILAPGFTDDPEQRALAIELTRITFPYLLLITLVTLYGGILNVMQRFASAAAASIFLNISMMATLALAAFFPSAGHAAAWGVLISGVLQYFLLAGDLSLHGGLPRFARPKLDEDVRAFFRALGPATLGSMGTQLALFADTIIATFLPAGALSALYYADRLNQLPIGVIGIAIGTVLLPEMSRQLTAGDDAGAKASQRRAFEFTLLFSVPFVAAFLTVPDEIMRAMFARGAFTRADAISAGTTLAAYAIALIPFVLIRSAVAPFYARKDTATPVKAALTGVATNVVLKFALMGSLAQVGLALATAAGAWINLLLVIFFSVRAGYLEFDRELVRAILKFGIIGVLLGAALWLTAWLAPPYLALLPALRSEAALALLILVGAVIYGAAILILFGPRWIKRLLRG”, the protein production result is recorded as “failed”.
For “MLKRKLILIAYTLLGLSSPVFSADYITENLSTYMRKGAGDQYKISGAVQAGEKVTVLDRKDRFVLIRDSRNREGWVLASEISQTASPKDLIPQLQQQVQDLSSKLGKIDADWQQRTLEMQRRSQQAEQQSSQLLDQNAQLKRELDILKNKNRDLETMHDSAKREIVIQWFIYGGSVLAVGLLLGLIIPFILPRRKRHNGWS” the value was “failed”; for “MLKRLWQIFGPVICALVLVVVVIYAYPQGRKYSYEAEKRSAVTLTNENFKSRKNKTTALSDQNHRFVPYFGSSEWLRFDALHPAVLAEKYDRNYRPYFIGQRGSASLNQYLGMQQMLPELQNGTAVYVLSPQWFTKKGYNSAAFQQFFNNDQLSSFLSQNQTDANSQYAAKRILEMKPEITMKSQLSKVAKGQDLNTVDKTYIQFMAELNRREDSLFSPLAASNNANYDKKVLPYLKELPDQFSYDALDQLAVRDAEAHTKSNDFGIDDRFYKERLSKKIGKLKGFQKNLSYEVSQEYGDLQLVLNQFAKSNTNVIFVIPPVNSKWMAYTGLNQDMYDATVSKIRYQLESQGFTNIADFSKDGDQPYFMQDTIHMGWKGWVAFDRVVNSFVSNPTPAPSYKLNDRFYSKDWSGYTGTPSQFKLEHHHHHH”, “not failed”.
As for “MLKSCPMNPRLDALHPYPFEKLRALLADAGKPTHDLPPINLSIGEPKHAAPACVGQAIAANLAGLSVYPSTKGEPALRQAISQWLSRRYSIPAPDPESEVLPVLGSREALFAFAQTVIDPSAGALVVCPNPFYQIYEGAALLAGATPYYVNADPARDFGCDWARVPDEVWRRTQLVFVCSPGNPAGNVMSLEEWRTLFELSDRHGFVIAADECYSEIYLDEDNPPLGSLQAARRLGRDRYTNLVAFSSLSKRSNVPGMRSGFVAGDAALLARFLLYRTYHGSAMSPVVSAASIAAWSDETHVQENRRQYRAKFEAVLPILQNVLDVRAPQASFYLWAGTPGSDTAFARELYGRTGVTVLPGSLLAREAHNANPGQGRIRIALVAPLDQCVQAAERIAHFARTSI”, the protein production result is “failed”.
The result for “MLKSEDADYEKAMKDKVGTGPQEYLKQLSDSLVKNQSAASVEVVSGATHSSDAFINYANQLIQAAQKADTTTISINNLAKMEDGTYKLEEQNYAHGYRVVFSMDVKDGKITKSDYNYVDKDGKLKSDDADYEKNMKAKSGTGPKEYIPALNKSLVEKQDVAAVDTVSGATNSSNQFKIYAAQLQNAAQNGNTDTIKVYNLVEAELEHHHHHH” reads “failed”; that for “MLKTVRIIILGAMCTILSAAGFDPPQPAAAKSQADEYEYPFQDPSLPVQKRVSDLLSRLTLEEKVSLMHQYQPAVPRLGIPAFKTGTEALHGVAWLGEATVFPQAFGLAHTWDRYLIKQIGSAVGDEVRGFHHLDPAANGVNVWAPVVDLLRDPRWGRNEEGYSEDPFLTGEIATAYASGLRGDHPFYLKTVPTLKHFLAYNNETDRGFSSSSIDPRNMHEYYLKPFETAISKKAAYGLMPAYNSVNDKPAILSPLLDSTVKRRWAGDDFFIVSDAFDPSGIVNDHKYYDSHEKAHAHAVKAGIDNFTDQGENPELTRNALTGALKQGLISEKDLDQALANTFSIRFRTGEFDPDELNPYSRLTDDVINSPKHQLLAKKAAEKAIVLLKNDQDLLPFNARKNESIAVIGPFGNALYEDWYSGTMPYRKTPLDEIADKIGKDRVSFAEGLEQSGFKSALTGKFVTAGRDGKQPLTAAADKLEKSAAFDAADWGESIFTLRAQANGLYVSLQDDGRLIADQKQPNGRTVKETFQFEQQSDGTFAIKNTANGKYLTAGKDGTLTAAAEKPATAAEKFSKTIIKSGTDEAVQLAKSADKAIVFVGNNPYINGRETEDRKDITLPPAQENLLKAVSKANTNTVLVVTSSYPFALNWAKAHIPAIIYSAHGGQEAGSALADILYGDVNPGGRLTQTWHTSVKELPDMMNYDIIKGKRTYKYFVGKPLFPFGHGLSYTAFRYSDLSLSSDSIKKDGSVTIRVNVTNTGGRKGDEVVQLYTSPLFKTRVKQPNLDLKDFQRVELAPKETKTVTFKLKQTDLAFWDVTRETFAVERGPYRISVGSSAADIRKTKRIFVQGETIRERNLRRKTNAEDYDDYKGVLITEESKYGGDAVKSSTTNAWIAYHDVRFKGEKRIEAKVASSGAGEIGIFLDHPQKGKQIGSLKVPDTSGLQNWKTVKASVRKSTGTHRVFFVFKGKVAIDSFQFER”, “failed”.
For “MLLALLSLGTWPAVLTLLERRGRLPQHTYLDYSITNLLAAIIIAFTFGQIGSTKPDSPNFITQLAQDNWPSVMFAMAGGIVLSLGNLSTQYAWALVGLSVTEVITSSITVVIGSTLNYFLDDKINKAEILFPGVACFLIAVCLGSAVHRSNADDNKAKLRDFETAKQEASGPSTEIGTNSSKDLETNVTTKPKEGTARFLIELENTRAIKVFGKRKIIGLAITFFAGLCFSLFSPAFNLATNDQWNRLKQGVPKLVVYTAFFYFSVSCFIIALILNVVFLYYPVLGLPKSSFKAYLNDWNGRYWAFLAGFLCGFGNGLQFMGGQAAGYAAADSVQALPLVSTFWGVVLFGEYRRSSRKTYLLLFCMLFMFISAVAVLMASSGHRK” the value was “failed”; for “MLLEGLLFVLAAGIFTAIVCGFGTLPFFFVDEISDRVTVALWGLAGGIMLFASLFGFIFEGLRDGTVFEVGAGLVVGVVVVVVADRIITGYEFEPRDIPDADFRKLVLIVGVLTVHSFPEGVALGVAFADLGIEGDLVLAGLAIPGLAIFITAAISIQNIPEGLAVAIPLHTYGIANWKIFGWAVFSSIPQPIGAGIAYVFVTTAREFLPFGFGFASGAMIFLVLHDIFPEGLDHGSDLPGHGRRELLVGIAVGVAIMLPVMLLTE”, “failed”.
“MLLGVIPVLAILLLGFNIHLLVKERRYKKSWISFSMLGLNGLLFVAFTFFLLVYMAGFVTITTIPPFVYWFLIMLGFIIEGMSLYKKYVPGQMTAAAIHLFVVLPTIFSIGIVLLLVAIIELIVAMMNGTGGHPVPRNKQTTTP”: the protein production entry is recorded as “failed”.
The result for “MLLHGTNRSLRTGLRARGRGSTGARGTLAVSHAAGPSSHSLTLHSCALLPYTLHAHAFFPCAQTNMASSKKAIYAAILGNFAIAVTKFLGAAVSGSSAMLAEGIHSLVDTGNGGLLLLGLRRSKRPPDENHPYGYGKSLYFYTLVVAVLIFGLGGGISLYEGILHTLDPGHGGASTASVLGVTVGGLMLNTVVLGAAIVFEGLALRTALQEFKKQRGDTPFFEAIVTSKDPTTFTVVFEDTAALAGLVVALVGIHLASLLHMPVIDGIASIIIGLILCGVAAFLIWESKKLLIGEAAAPEIRDDIRRMAHDDADIASVERLLTMHMGPRALLLNMDLRFRDDLDANTVEAAVDRLERAIRKAHPSIRYIFVEAGSIARTRASDSGASAAGGPPS” reads “failed”; that for “MLLHLSTWQEVEAYLQQSKGIIFPIGSTEQHGPTGLIGTDAICAEAIAAGVGDATGAIVGPTINVGMALHHTAFPGTISLRPSTLIQVVRDYVTCLAKAGFSKFYFINGHGGNIATLKAAFSETYAHLEDLQIANAQQVQCQVANWFMCGSVYKLAKELYGDQEGSHATPSEVALTQYVYPEAIKQAPLSPEVASGHRIYSAADFRVRYPDGRMGSNPGLATPEHGKQFYDLAVKELSNGYLEFVNAD”, “not failed”.
As to “MLLIFFKKYEQSDIMRKLFLLSILMIGVIVAFAGCVEESKTTTQLQQTTQSESQKAETQPKLGVNVVRYAETFKLYPHWDEGYCVVADSVGNKFVLVEGNAKAPNISDGKIIKVPVKRIVTDFYCPIISAADILNAYHHTIVGAPKYAVEKSPKLKELFDEGKVVDIGSPSKGVNYELIVNLTPDIVFLGDWKSEDVVEEKLKELGVTVSRFYTYQEPTYMGRVEWIKFAAAFWGSNAYKKADKWFENVVKVRENILKKVQNVTNEPTVVIFSWSKTKNMPGIYGNDSYYSKMIAEFKGKNVFDDYNRGYQYVDKETFYERAMNADVVILIWFYGDVKTKEDLLKINPNFAEFKAFKTGRFYVSHPDYYVWEARDPAGYMMDFAKMIHPELFGGDDDLKYYYKIK”, the protein production entry is listed as “failed”.
For “MLLQANRGLGLSAHIIDHCNLILKFPEGTNSTWYNAQFKVFEALEFKYNVCEAVLLWEQYRNMTTVLTREYLDVRPDGWLDYAAMRIAQLGADKCYNRTLCEEHLNVILPAKPPFHPRQFHKCAVVGNSGDLLKTEFGEEIDSHDAVFRDNEAPVNEKYAKYVGVKRDFRLVVRGAARNMIKILNGSDNEVLIIKSVTHRDFNEMIKRIPNPVYLFQGIVLRRGAKGTGMKSIELALSMCDIVDIYGFTVDPGYTEWTRYFSTPRKGHNPLQGRAYYQLLECLGVQITC” the value was “failed”; for “MLLRRRLFVLCILILTITAVQSFVHVLSGDGLSALDLALTAVFVPLAAWLAQSFCTLTAGALMIATQRFSWRRRRDELADIASGLVDSLPRVAIVMPVYNEDSGRVFAGVAAMRDELRALGVAKRFDVFILSDSTDGDNWLAEEEAWDSERHRVGDSPRLFYRRRFRNIKRKTGNIGQFVERHGAAYGYMVVLDADSLMSGEAIWVLTRRMDAERRTALIQAPPKLIMGDTPFSRMLQFAGDVYGPLSSAGLAFWAGGEGNYWGHNAIIRVDAFAACCGLPALPGRAPLGGDILSHDFVEAALLRRAGWKVRIAWDLGGSYEEPPPTMEDFMVRDRRWCQGNMQHGRILFARGLHGVSRSHLLIGIMSYVTSPLWLIFLILSGMQAWTLARAKAVYFQQGVPWATWPISREEEAAYLLAGTLGMLFLPKIWGLLLAIFHGPTRRAHGGGLALVGGFFLENLISALVAPIMMIRHSQFVVSILTGAKVDWKPQRRTADKGNLRVALASYKDVMVIGIAAVAFVLWAAPSLGVWLSPVLAGLLGAPFLAMALGDPDLGAALRRRGLLVIPEEITPPSVLTRMEERLAARPPTAEAPESRFSRVILDPGTNARHRALIQATGEAPTAPVEVMERAVGLAIHLGPEALGKDERKALLECPERLEQLHVACWARRLEDRGGVAPG”, “failed”.
For “MLLSFFLINSNGEVIIEKSWKTEHTRRVCDLFWQEILKVSSPEELAPLLHFPKFTIVHIYSCGVFLVATVRKTLQSTFALELLHHLVDTFVDYFGEFNEHAIKENFVTVYEIIEEVLDHGFPFTVDIASLKELVPPPSLLSRVLGSVTGSSLSLKDISDWNSRKKVSWRNPNIRYAHNEIFVDIVEEVSVVLNSKGQCIHSGISGSIVVNCRLSGMPELALHLNESSIAKHSFVHPCVRYGRFIREGIISFVPPDGVFQLLKYQTWKAPYIPVTLEPQYSVDKERKHGRLQLTLDIRGCGGKPCEEMMISIPFHHATNITNLNVTVGTVRYDSQIQVCPI” the value was “failed”.
